Laboratory results as given in patent US12630600B2 (MEDIMMUNE LIMITED, priority 2022, dated 2026).
Starred links: 1 amine or outer side, 2 acyl side, 3 side chain; linkers in the order of their positions; H or OH if unused. Non-standard residues stand in square brackets, D forms with d. Groups on a side chain read outwards from the residue. No end group written: not given here. *: point of attachment. C20 diacid = O=C(O)CCCCCCCCCCCCCCCCCCC(=O)*; C18 diacid = O=C(O)CCCCCCCCCCCCCCCCC(=O)*; γGlu = O=C(O)[C@H](CCC(=O)[*:2])N[*:1]; αMeF = C[C@](N)(Cc1ccccc1)C(=O)O; AEEA = NCCOCCOCC(=O)O; Aib = CC(C)(N)C(=O)O

B1: Peptide 2 (peptide)
peptide: HSQGS[αMeF]TSDVSK[αMeF]LDSK([AEEA-AEEA-γGlu-C20 diacid])AAQD[αMeF]VQWIANT-NH2
modifications: N-terminus assumed
SMILES: CC[C@H](C)[C@H](NC(=O)[C@H](Cc1c[nH]c2ccccc12)NC(=O)[C@H](CCC(N)=O)NC(=O)[C@@H](NC(=O)[C@](C)(Cc1ccccc1)NC(=O)[C@H](CC(=O)O)NC(=O)[C@H](CCC(N)=O)NC(=O)[C@H](C)NC(=O)[C@H](C)NC(=O)[C@H](CCCCNC(=O)COCCOCCNC(=O)COCCOCCNC(=O)CC[C@H](NC(=O)CCCCCCCCCCCCCCCCCCC(=O)O)C(=O)O)NC(=O)[C@H](CO)NC(=O)[C@H](CC(=O)O)NC(=O)[C@H](CC(C)C)NC(=O)[C@](C)(Cc1ccccc1)NC(=O)[C@H](CCCCN)NC(=O)[C@H](CO)NC(=O)[C@@H](NC(=O)[C@H](CC(=O)O)NC(=O)[C@H](CO)NC(=O)[C@@H](NC(=O)[C@](C)(Cc1ccccc1)NC(=O)[C@H](CO)NC(=O)CNC(=O)[C@H](CCC(N)=O)NC(=O)[C@H](CO)NC(=O)[C@@H](N)Cc1c[nH]cn1)[C@@H](C)O)C(C)C)C(C)C)C(=O)N[C@@H](C)C(=O)N[C@@H](CC(N)=O)C(=O)N[C@H](C(N)=O)[C@@H](C)O
B2: Peptide 3 (peptide)
peptide: HSQGS[αMeF]TSDVSK[αMeF]LDSK([γGlu-C18 diacid])AAQDFVQWIANT-NH2
modifications: N-terminus assumed
SMILES: CC[C@H](C)[C@H](NC(=O)[C@H](Cc1c[nH]c2ccccc12)NC(=O)[C@H](CCC(N)=O)NC(=O)[C@@H](NC(=O)[C@H](Cc1ccccc1)NC(=O)[C@H](CC(=O)O)NC(=O)[C@H](CCC(N)=O)NC(=O)[C@H](C)NC(=O)[C@H](C)NC(=O)[C@H](CCCCNC(=O)CC[C@H](NC(=O)CCCCCCCCCCCCCCCCC(=O)O)C(=O)O)NC(=O)[C@H](CO)NC(=O)[C@H](CC(=O)O)NC(=O)[C@H](CC(C)C)NC(=O)[C@](C)(Cc1ccccc1)NC(=O)[C@H](CCCCN)NC(=O)[C@H](CO)NC(=O)[C@@H](NC(=O)[C@H](CC(=O)O)NC(=O)[C@H](CO)NC(=O)[C@@H](NC(=O)[C@](C)(Cc1ccccc1)NC(=O)[C@H](CO)NC(=O)CNC(=O)[C@H](CCC(N)=O)NC(=O)[C@H](CO)NC(=O)[C@@H](N)Cc1c[nH]cn1)[C@@H](C)O)C(C)C)C(C)C)C(=O)N[C@@H](C)C(=O)N[C@@H](CC(N)=O)C(=O)N[C@H](C(N)=O)[C@@H](C)O
B3: Peptide 137 (peptide)
peptide: H[Aib]QGTFTSDVSK[αMeF]LDSK([γGlu-γGlu-AEEA-AEEA-γGlu-γGlu-C18 diacid])RAQDFVRWLLEG[Aib]-OH
modifications: N-terminus assumed
SMILES: CC(C)C[C@H](NC(=O)[C@H](CC(C)C)NC(=O)[C@H](Cc1c[nH]c2ccccc12)NC(=O)[C@H](CCCNC(=N)N)NC(=O)[C@@H](NC(=O)[C@H](Cc1ccccc1)NC(=O)[C@H](CC(=O)O)NC(=O)[C@H](CCC(N)=O)NC(=O)[C@H](C)NC(=O)[C@H](CCCNC(=N)N)NC(=O)[C@H](CCCCNC(=O)CC[C@H](NC(=O)CC[C@H](NC(=O)COCCOCCNC(=O)COCCOCCNC(=O)CC[C@H](NC(=O)CC[C@H](NC(=O)CCCCCCCCCCCCCCCCC(=O)O)C(=O)O)C(=O)O)C(=O)O)C(=O)O)NC(=O)[C@H](CO)NC(=O)[C@H](CC(=O)O)NC(=O)[C@H](CC(C)C)NC(=O)[C@](C)(Cc1ccccc1)NC(=O)[C@H](CCCCN)NC(=O)[C@H](CO)NC(=O)[C@@H](NC(=O)[C@H](CC(=O)O)NC(=O)[C@H](CO)NC(=O)[C@@H](NC(=O)[C@H](Cc1ccccc1)NC(=O)[C@@H](NC(=O)CNC(=O)[C@H](CCC(N)=O)NC(=O)C(C)(C)NC(=O)[C@@H](N)Cc1c[nH]cn1)[C@@H](C)O)[C@@H](C)O)C(C)C)C(C)C)C(=O)N[C@@H](CCC(=O)O)C(=O)NCC(=O)NC(C)(C)C(=O)O
B4: Peptide 40 (peptide)
peptide: H[Aib]QGTFTSDVSK[αMeF]LDSK([AEEA-AEEA-γGlu-C18 diacid])RAQDFVQWLL[Aib]T-OH
modifications: N-terminus assumed
SMILES: CC(C)C[C@H](NC(=O)[C@H](Cc1c[nH]c2ccccc12)NC(=O)[C@H](CCC(N)=O)NC(=O)[C@@H](NC(=O)[C@H](Cc1ccccc1)NC(=O)[C@H](CC(=O)O)NC(=O)[C@H](CCC(N)=O)NC(=O)[C@H](C)NC(=O)[C@H](CCCNC(=N)N)NC(=O)[C@H](CCCCNC(=O)COCCOCCNC(=O)COCCOCCNC(=O)CC[C@H](NC(=O)CCCCCCCCCCCCCCCCC(=O)O)C(=O)O)NC(=O)[C@H](CO)NC(=O)[C@H](CC(=O)O)NC(=O)[C@H](CC(C)C)NC(=O)[C@](C)(Cc1ccccc1)NC(=O)[C@H](CCCCN)NC(=O)[C@H](CO)NC(=O)[C@@H](NC(=O)[C@H](CC(=O)O)NC(=O)[C@H](CO)NC(=O)[C@@H](NC(=O)[C@H](Cc1ccccc1)NC(=O)[C@@H](NC(=O)CNC(=O)[C@H](CCC(N)=O)NC(=O)C(C)(C)NC(=O)[C@@H](N)Cc1c[nH]cn1)[C@@H](C)O)[C@@H](C)O)C(C)C)C(C)C)C(=O)N[C@@H](CC(C)C)C(=O)NC(C)(C)C(=O)N[C@H](C(=O)O)[C@@H](C)O
B5: Peptide 136 (peptide)
peptide: H[Aib]QGTFTSDVSK[αMeF]LDSK([γGlu-γGlu-AEEA-AEEA-γGlu-γGlu-C18 diacid])RARDFVRWLLE[Aib]G-OH
modifications: N-terminus assumed
SMILES: CC(C)C[C@H](NC(=O)[C@H](Cc1c[nH]c2ccccc12)NC(=O)[C@H](CCCNC(=N)N)NC(=O)[C@@H](NC(=O)[C@H](Cc1ccccc1)NC(=O)[C@H](CC(=O)O)NC(=O)[C@H](CCCNC(=N)N)NC(=O)[C@H](C)NC(=O)[C@H](CCCNC(=N)N)NC(=O)[C@H](CCCCNC(=O)CC[C@H](NC(=O)CC[C@H](NC(=O)COCCOCCNC(=O)COCCOCCNC(=O)CC[C@H](NC(=O)CC[C@H](NC(=O)CCCCCCCCCCCCCCCCC(=O)O)C(=O)O)C(=O)O)C(=O)O)C(=O)O)NC(=O)[C@H](CO)NC(=O)[C@H](CC(=O)O)NC(=O)[C@H](CC(C)C)NC(=O)[C@](C)(Cc1ccccc1)NC(=O)[C@H](CCCCN)NC(=O)[C@H](CO)NC(=O)[C@@H](NC(=O)[C@H](CC(=O)O)NC(=O)[C@H](CO)NC(=O)[C@@H](NC(=O)[C@H](Cc1ccccc1)NC(=O)[C@@H](NC(=O)CNC(=O)[C@H](CCC(N)=O)NC(=O)C(C)(C)NC(=O)[C@@H](N)Cc1c[nH]cn1)[C@@H](C)O)[C@@H](C)O)C(C)C)C(C)C)C(=O)N[C@@H](CC(C)C)C(=O)N[C@@H](CCC(=O)O)C(=O)NC(C)(C)C(=O)NCC(=O)O
B6: Peptide 42 (peptide)
peptide: H[Aib]QGTFTSDVSK[αMeF]LDSK([AEEA-AEEA-γGlu-C18 diacid])RAQDFVQ[Aib]LVAT-OH
modifications: N-terminus assumed
SMILES: CC(C)C[C@H](NC(=O)C(C)(C)NC(=O)[C@H](CCC(N)=O)NC(=O)[C@@H](NC(=O)[C@H](Cc1ccccc1)NC(=O)[C@H](CC(=O)O)NC(=O)[C@H](CCC(N)=O)NC(=O)[C@H](C)NC(=O)[C@H](CCCNC(=N)N)NC(=O)[C@H](CCCCNC(=O)COCCOCCNC(=O)COCCOCCNC(=O)CC[C@H](NC(=O)CCCCCCCCCCCCCCCCC(=O)O)C(=O)O)NC(=O)[C@H](CO)NC(=O)[C@H](CC(=O)O)NC(=O)[C@H](CC(C)C)NC(=O)[C@](C)(Cc1ccccc1)NC(=O)[C@H](CCCCN)NC(=O)[C@H](CO)NC(=O)[C@@H](NC(=O)[C@H](CC(=O)O)NC(=O)[C@H](CO)NC(=O)[C@@H](NC(=O)[C@H](Cc1ccccc1)NC(=O)[C@@H](NC(=O)CNC(=O)[C@H](CCC(N)=O)NC(=O)C(C)(C)NC(=O)[C@@H](N)Cc1c[nH]cn1)[C@@H](C)O)[C@@H](C)O)C(C)C)C(C)C)C(=O)N[C@H](C(=O)N[C@@H](C)C(=O)N[C@H](C(=O)O)[C@@H](C)O)C(C)C
B7: Peptide 29 (peptide)
peptide: H[Aib]QGTFTSDVSK[αMeF]LDSK([AEEA-AEEA-γGlu-C18 diacid])RA[Aib]DFVQWLL[Aib]T-OH
modifications: N-terminus assumed
SMILES: CC(C)C[C@H](NC(=O)[C@H](Cc1c[nH]c2ccccc12)NC(=O)[C@H](CCC(N)=O)NC(=O)[C@@H](NC(=O)[C@H](Cc1ccccc1)NC(=O)[C@H](CC(=O)O)NC(=O)C(C)(C)NC(=O)[C@H](C)NC(=O)[C@H](CCCNC(=N)N)NC(=O)[C@H](CCCCNC(=O)COCCOCCNC(=O)COCCOCCNC(=O)CC[C@H](NC(=O)CCCCCCCCCCCCCCCCC(=O)O)C(=O)O)NC(=O)[C@H](CO)NC(=O)[C@H](CC(=O)O)NC(=O)[C@H](CC(C)C)NC(=O)[C@](C)(Cc1ccccc1)NC(=O)[C@H](CCCCN)NC(=O)[C@H](CO)NC(=O)[C@@H](NC(=O)[C@H](CC(=O)O)NC(=O)[C@H](CO)NC(=O)[C@@H](NC(=O)[C@H](Cc1ccccc1)NC(=O)[C@@H](NC(=O)CNC(=O)[C@H](CCC(N)=O)NC(=O)C(C)(C)NC(=O)[C@@H](N)Cc1c[nH]cn1)[C@@H](C)O)[C@@H](C)O)C(C)C)C(C)C)C(=O)N[C@@H](CC(C)C)C(=O)NC(C)(C)C(=O)N[C@H](C(=O)O)[C@@H](C)O

Each binder was assayed against human GLP-1 receptor (human, UniProt P43220) (assay: cell-based or functional assay).

First: B1
Second: B2
The “cAMP production, hGLP-1R EC50 (pM)” value of the first is higher: 1280 pM for the first, 69 pM for the second.

Compared with H[Aib]HGS[αMeF]TSDVSK[αMeF]LDSK([AEEA-AEEA-γGlu-γGlu-C20 diacid])AAQD[αMeF]VQ[Aib]IANT-NH2 [Peptide 25], B3 is lower in “cAMP production, hGLP-1R EC50 (pM)” value: 726 pM for the first, 143 pM for the second.

First: B4
Second: B5
The “cAMP production, hGLP-1R EC50 (pM)” value of the first is lower: 29.9 pM for the first, 45.2 pM for the second.

First: B6
Second: B7
The “cAMP production, hGLP-1R EC50 (pM)” value of the first is higher: 665 pM for the first, 107 pM for the second.

Each binder was assayed against human glucagon receptor (human, UniProt P47871) (assay: cell-based or functional assay).

First: B1
Second: B2
The “cAMP production, hGluc-R EC50 (pM)” value of the first is higher: 4190 pM for the first, 149 pM for the second.

First: H[Aib]HGS[αMeF]TSDVSK[αMeF]LDSK([AEEA-AEEA-γGlu-γGlu-C20 diacid])AAQD[αMeF]VQ[Aib]IANT-NH2 [Peptide 25]
Second: B3
The “cAMP production, hGluc-R EC50 (pM)” value of the first is higher: 1310 pM for the first, 268 pM for the second.

Compared with B4, B5 is higher in “cAMP production, hGluc-R EC50 (pM)” value: 123 pM for the first, 509 pM for the second.

Compared with B6, B7 is lower in “cAMP production, hGluc-R EC50 (pM)” value: 8190 pM for the first, 629 pM for the second.
